From patent US20060257938A1, “Method of screening for drugs that block ligand binding to a lipid binding protein” (priority 2005, published 2006)
Several values for one entry are separate records, joined by “and”; a condition that tells them apart may be missing. Identical values can stand only once.

Experiments:
Assay type in all cases: binding
Conditions in all cases: response relative to ADIFAB2
[1] = Probe fluorescence ratio response to oleic acid relative to ADIFAB2
Summary of the method: (§1)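 Fluorescently labeled rat intestinal FABP variants were read at two emission wavelengths, near the unbound maximum (about 420 to 480 nm) and the FFA-bound maximum (about 495 to 580 nm). R = Fλ1/Fλ2 after subtracting probe-free intensity; ΔR = R+agent − R0, normalized to ADIFAB2 (rI-FABP-L72A).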

[2] = Probe fluorescence ratio response to linolenic acid relative to ADIFAB2
Summary of the method: as §1

[3] = Probe fluorescence ratio response to arachidonic acid relative to ADIFAB2
Summary of the method: as §1

[4] = Probe fluorescence ratio response to palmitic acid relative to ADIFAB2
Summary of the method: as §1

[5] = Probe fluorescence ratio response to linoleic acid relative to ADIFAB2
Summary of the method: as §1

Row | Molecule | DR/DR OA [1] | DR/DR LNA [2] | DR/DR AA ([3]; Arachidonic acid) | DR/DR AA ([3]; arachidonic acid) | DR/DR PA [4] | DR/DR LA [5]
1 | 72Q (protein, listed as Rattus norvegicus, PEPTIDE (1)...(131) wild-type rat intestinal fatty acid binding protein) AFDGTWKVDRNENYEKFMEKMGINVVKRKLGAHDNLKLTITQEGNKFTVKESSNFRNIDVVFELGVDFAYSQADGTELTGTWTMEGNKLVGKFKRVDNGKELIAVREISGNELIQTYTYEGVEAKRIFKKE | 0.78 and 0.777 | 0.73 and 0.735 | 0.77 | 0.770 | 0.99 and 0.989 | 0.76 and 0.762
2 | 72S (protein, listed as Rattus norvegicus, PEPTIDE (1)...(131) wild-type rat intestinal fatty acid binding protein) AFDGTWKVDRNENYEKFMEKMGINVVKRKLGAHDNLKLTITQEGNKFTVKESSNFRNIDVVFELGVDFAYSSADGTELTGTWTMEGNKLVGKFKRVDNGKELIAVREISGNELIQTYTYEGVEAKRIFKKE | 0.62 | 0.71 | 0.65 |  | 0.68 | 0.73
3 | 104F3, 72A (protein, listed as Rattus norvegicus, PEPTIDE (1)...(131) wild-type rat intestinal fatty acid binding protein) AFDGTWKVDRNENYEKFMEKMGINVVKRKLGAHDNLKLTITQEGNKFTVKESSNFRNIDVVFELGVDFAYSAADGTELTGTWTMEGNKLVGKFKRVDNGKELIFVREISGNELIQTYTYEGVEAKRIFKKE | 0.47 | 0.45 |  | 0.71 | 0.25 | 0.50
4 | 73E, 72A (protein, listed as Rattus norvegicus, PEPTIDE (1)...(131) wild-type rat intestinal fatty acid binding protein) AFDGTWKVDRNENYEKFMEKMGINVVKRKLGAHDNLKLTITQEGNKFTVKESSNFRNIDVVFELGVDFAYSAEDGTELTGTWTMEGNKLVGKFKRVDNGKELIAVREISGNELIQTYTYEGVEAKRIFKKE | 0.14 | 0.14 | 0.15 |  | 0.13 | 0.19
5 | 72R (protein, listed as Rattus norvegicus, PEPTIDE (1)...(131) wild-type rat intestinal fatty acid binding protein) AFDGTWKVDRNENYEKFMEKMGINVVKRKLGAHDNLKLTITQEGNKFTVKESSNFRNIDVVFELGVDFAYSRADGTELTGTWTMEGNKLVGKFKRVDNGKELIAVREISGNELIQTYTYEGVEAKRIFKKE | 0.45 | 0.49 | 0.45 |  | 0.26 | 0.51
6 | 73G, 72A (protein, listed as Rattus norvegicus, PEPTIDE (1)...(131) wild-type rat intestinal fatty acid binding protein) AFDGTWKVDRNENYEKFMEKMGINVVKRKLGAHDNLKLTITQEGNKFTVKESSNFRNIDVVFELGVDFAYSAGDGTELTGTWTMEGNKLVGKFKRVDNGKELIAVREISGNELIQTYTYEGVEAKRIFKKE | 0.52 | 0.53 | 0.46 |  | 0.41 | 0.56
7 | 73F, 72A (protein, listed as Rattus norvegicus, PEPTIDE (1)...(131) wild-type rat intestinal fatty acid binding protein) AFDGTWKVDRNENYEKFMEKMGINVVKRKLGAHDNLKLTITQEGNKFTVKESSNFRNIDVVFELGVDFAYSAFDGTELTGTWTMEGNKLVGKFKRVDNGKELIAVREISGNELIQTYTYEGVEAKRIFKKE | 0.73 and 0.728 | 1.86 and 1.861 | 1.21 | 1.208 | 1.13 and 1.128 | 1.23 and 1.234
8 | 73H, 72A (protein, listed as Rattus norvegicus, PEPTIDE (1)...(131) wild-type rat intestinal fatty acid binding protein) AFDGTWKVDRNENYEKFMEKMGINVVKRKLGAHDNLKLTITQEGNKFTVKESSNFRNIDVVFELGVDFAYSAHDGTELTGTWTMEGNKLVGKFKRVDNGKELIAVREISGNELIQTYTYEGVEAKRIFKKE | 0.13 | 0.25 | 0.15 |  | 0.16 | 0.18
9 | 72V (protein, listed as Rattus norvegicus, PEPTIDE (1)...(131) wild-type rat intestinal fatty acid binding protein) AFDGTWKVDRNENYEKFMEKMGINVVKRKLGAHDNLKLTITQEGNKFTVKESSNFRNIDVVFELGVDFAYSVADGTELTGTWTMEGNKLVGKFKRVDNGKELIAVREISGNELIQTYTYEGVEAKRIFKKE | 0.20 | 0.15 | 0.18 |  | 0.16 | 0.21
10 | 73K, 72A (protein, listed as Rattus norvegicus, PEPTIDE (1)...(131) wild-type rat intestinal fatty acid binding protein) AFDGTWKVDRNENYEKFMEKMGINVVKRKLGAHDNLKLTITQEGNKFTVKESSNFRNIDVVFELGVDFAYSAKDGTELTGTWTMEGNKLVGKFKRVDNGKELIAVREISGNELIQTYTYEGVEAKRIFKKE | 0.28 | 0.28 | 0.30 |  | 0.15 | 0.29
11 | 73L, 72A (protein, listed as Rattus norvegicus, PEPTIDE (1)...(131) wild-type rat intestinal fatty acid binding protein) AFDGTWKVDRNENYEKFMEKMGINVVKRKLGAHDNLKLTITQEGNKFTVKESSNFRNIDVVFELGVDFAYSALDGTELTGTWTMEGNKLVGKFKRVDNGKELIAVREISGNELIQTYTYEGVEAKRIFKKE | 0.38 | 0.34 and 0.338 | 0.73 | 0.733 | 0.25 and 0.251 | 0.33 and 0.325
12 | 73N, 72A (protein, listed as Rattus norvegicus, PEPTIDE (1)...(131) wild-type rat intestinal fatty acid binding protein) AFDGTWKVDRNENYEKFMEKMGINVVKRKLGAHDNLKLTITQEGNKFTVKESSNFRNIDVVFELGVDFAYSANDGTELTGTWTMEGNKLVGKFKRVDNGKELIAVREISGNELIQTYTYEGVEAKRIFKKE | 0.41 | 0.47 | 0.48 |  | 0.39 | 0.43
13 | 72Y (protein, listed as Rattus norvegicus, PEPTIDE (1)...(131) wild-type rat intestinal fatty acid binding protein) AFDGTWKVDRNENYEKFMEKMGINVVKRKLGAHDNLKLTITQEGNKFTVKESSNFRNIDVVFELGVDFAYSYADGTELTGTWTMEGNKLVGKFKRVDNGKELIAVREISGNELIQTYTYEGVEAKRIFKKE | 0.56 and 0.557 | 0.59 and 0.594 | 0.35 | 0.346 | 0.41 and 0.415 | 0.64 and 0.637
